Among the data in paper PMC4085236 are stoichiometry N values, retold here.

Experiment [1] has as its target GST-Cul5(NTD)/HIS6-Rbx2/Cul(CTD) complex (mouse) (UniProt Q9D5V5). Briefly: pull-down + SEC.
Experiment [2] has as its target Cullin5/Rbx1 complex (mouse | not stated) (UniProt Q9D5V5). Briefly: SEC. Background: SEC sorts molecules by how far they enter the pores of the column.

Broadly, the stoichiometry N is a count of units in the complex or per binding partner.

Sequence of Murine SOCS3/elonginsBC complex (O35718 22-225): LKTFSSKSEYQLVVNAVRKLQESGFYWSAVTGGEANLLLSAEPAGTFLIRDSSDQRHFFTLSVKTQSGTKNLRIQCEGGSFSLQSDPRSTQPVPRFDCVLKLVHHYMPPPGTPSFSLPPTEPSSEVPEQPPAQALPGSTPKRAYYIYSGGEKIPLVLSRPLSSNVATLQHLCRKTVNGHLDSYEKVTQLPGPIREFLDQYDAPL
Sequence of Murine SOCS3/elonginsBC complex (P62869 whole entry): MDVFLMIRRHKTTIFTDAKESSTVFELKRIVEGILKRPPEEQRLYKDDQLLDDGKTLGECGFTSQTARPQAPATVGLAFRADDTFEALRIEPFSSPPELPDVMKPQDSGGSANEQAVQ
Sequence of Murine SOCS3/elonginsBC complex (P83940 whole entry): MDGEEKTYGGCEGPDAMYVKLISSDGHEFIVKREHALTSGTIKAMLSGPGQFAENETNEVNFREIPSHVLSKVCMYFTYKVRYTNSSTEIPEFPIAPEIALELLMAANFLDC
Sequence of Cullin5/Rbx1 complex (mouse | not stated) (Q9D5V5 1-384, chain 1 of 3): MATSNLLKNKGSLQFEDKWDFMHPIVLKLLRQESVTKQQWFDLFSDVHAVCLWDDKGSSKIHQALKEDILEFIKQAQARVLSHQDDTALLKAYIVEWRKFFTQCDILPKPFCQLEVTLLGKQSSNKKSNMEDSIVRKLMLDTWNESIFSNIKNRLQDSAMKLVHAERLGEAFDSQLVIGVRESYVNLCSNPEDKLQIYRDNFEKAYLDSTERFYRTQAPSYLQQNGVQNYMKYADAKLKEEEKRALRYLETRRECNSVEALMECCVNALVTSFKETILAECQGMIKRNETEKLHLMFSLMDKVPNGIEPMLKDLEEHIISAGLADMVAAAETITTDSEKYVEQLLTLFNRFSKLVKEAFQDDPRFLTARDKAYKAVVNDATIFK
Sequence of Cullin5/Rbx1 complex (mouse | not stated) (Q9D5V5 385-780, chain 2 of 3): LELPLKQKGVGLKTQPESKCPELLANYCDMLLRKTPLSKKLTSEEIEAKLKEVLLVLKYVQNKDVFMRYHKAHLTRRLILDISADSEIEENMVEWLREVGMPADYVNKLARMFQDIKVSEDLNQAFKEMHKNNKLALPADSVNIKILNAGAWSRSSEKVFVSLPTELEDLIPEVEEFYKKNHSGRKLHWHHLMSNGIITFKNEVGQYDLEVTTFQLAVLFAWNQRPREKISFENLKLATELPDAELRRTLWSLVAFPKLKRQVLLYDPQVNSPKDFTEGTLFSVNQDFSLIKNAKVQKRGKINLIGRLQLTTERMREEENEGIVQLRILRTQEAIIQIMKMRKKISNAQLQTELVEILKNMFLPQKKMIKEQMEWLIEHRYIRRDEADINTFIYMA
Sequence of Cullin5/Rbx1 complex (mouse | not stated) (P62878 whole entry, chain 3 of 3, further chain): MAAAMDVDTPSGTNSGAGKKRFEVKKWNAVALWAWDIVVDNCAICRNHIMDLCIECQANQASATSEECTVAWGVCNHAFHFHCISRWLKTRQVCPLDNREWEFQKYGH
Sequence of GST-Cul5(NTD)/HIS6-Rbx2/Cul(CTD) complex (mouse) (Q9D5V5 1-384, chain 1 of 3): as the sequence (Q9D5V5 1-384, chain 1 of 3) above
Sequence of GST-Cul5(NTD)/HIS6-Rbx2/Cul(CTD) complex (mouse) (Q9D5V5 385-780, chain 2 of 3): as the sequence (Q9D5V5 385-780, chain 2 of 3) above
Sequence of GST-Cul5(NTD)/HIS6-Rbx2/Cul(CTD) complex (mouse) (Q9WTZ1 whole entry, chain 3 of 3, further chain): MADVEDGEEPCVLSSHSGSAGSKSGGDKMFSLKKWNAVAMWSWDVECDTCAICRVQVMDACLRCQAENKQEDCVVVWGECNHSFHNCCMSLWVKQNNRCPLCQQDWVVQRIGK

As to “Murine SOCS3/elonginsBC complex (from UniProt O35718 22-225; P62869 1-118; P83940 1-112)”, the stoichiometry N in experiment [1] and in experiment [2] was 1 in each case.
